{"source": "paper PMC3286859", "key": {"[1]": {"system": "Cc1cc(=O)oc2cc(NC(=O)[C@H](CCCNC(=N)N)NC(=O)[C@H](Cc3ccccc3)NC(=O)OCc3ccccc3)ccc12", "assay": "purified protein", "details": "100 mM sodium acetate pH 5.0, 1 mM EDTA, 2 mM DTT, no crammer added"}, "[2]": {"target": "recombinant Drosophila cathepsin B (Drosophila)", "assay": "enzyme inhibition assay"}, "[3]": {"target": "Drosophila cathepsin L purified from fly head extracts (Drosophila melanogaster (endogenous in fly heads))", "assay": "enzyme inhibition assay"}}, "note": "pKi: −log10 of the molar value.", "data": [{"substance": "Drosophila cathepsin L (Drosophila melanogaster)", "values": [{"measurement": "Km", "setting": "[1]", "result": 3.85, "unit": "µM"}]}, {"substance": "Drosophila melanogaster crammer, recombinant wild type (monomer) (natural protein)", "values": [{"measurement": "pKi", "setting": "[2]", "result": 6.10}, {"measurement": "pKi", "setting": "[3]", "result": 8.87}]}, {"substance": "crammer C72S (natural protein)", "values": [{"measurement": "pKi", "setting": "[2]", "result": 5.73}]}, {"substance": "crammer F16A (natural protein)", "values": [{"measurement": "pKi", "setting": "[2]", "result": 5.65}]}, {"substance": "crammer Y12A (natural protein)", "values": [{"measurement": "pKi", "setting": "[2]", "result": 4.72}]}, {"substance": "crammer Y20A (natural protein)", "values": [{"measurement": "pKi", "setting": "[2]", "result": 5.27}]}]}
